The record followed here is patent US20250171542A1.

The assay addresses Trop2 on MDA-MB-231 cell surface (UniProt P09758). Nature of the assay: cell-based or functional assay.

Trop2 on MDA-MB-231 cell surface, sequence (P09758 27-323 limits assumed): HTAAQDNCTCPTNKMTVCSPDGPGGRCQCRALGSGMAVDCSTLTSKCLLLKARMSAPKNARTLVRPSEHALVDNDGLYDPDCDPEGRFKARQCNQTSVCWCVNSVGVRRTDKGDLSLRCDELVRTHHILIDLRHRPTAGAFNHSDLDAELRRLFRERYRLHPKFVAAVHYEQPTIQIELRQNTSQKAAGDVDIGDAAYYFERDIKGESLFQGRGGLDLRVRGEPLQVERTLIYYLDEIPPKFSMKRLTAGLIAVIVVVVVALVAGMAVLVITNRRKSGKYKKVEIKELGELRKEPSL

B1: Trodelvy (Sacituzumab govitecan-hziy, Immunomedics) (antibody, INN chains, looked up, V domains shown)
VH: QVQLQQSGSELKKPGASVKVSCKASGYTFTNYGMNWVKQAPGQGLKWMGWINTYTGEPTYTDDFKGRFAFSLDTSVSTAYLQISSLKADDTAVYFCARGGFGSSYWYFDVWGQGSLVTVSS
VL: DIQLTQSPSSLSASVGDRVSITCKASQDVSIAVAWYQQKPGKAPKLLIYSASYRYTGVPDRFSGSGSGTDFTLTISSLQPEDFAVYYCQQHYITPLTFGAGTKVEIKR
modifications: govitecan (SN-38) payload
B1 displayed an Internalization (%), FACS, 0.25 µg/ml, 2 h of 35.7%; an Internalization (%), FACS, 0.25 µg/ml, 4 h of 45.1%; an Internalization (%), FACS, 0.5 µg/ml, 2 h of 38%; an Internalization (%), FACS, 0.5 µg/ml, 4 h of 45.6%. This molecule had an Internalization (%), FACS, 1 µg/ml, 2 h of 36.5%; an Internalization (%), FACS, 1 µg/ml, 4 h of 44.5%; an Internalization (%), FACS, 2 µg/ml, 2 h of 36.2%; an Internalization (%), FACS, 2 µg/ml, 4 h of 46.1%.
